In paper doi:10.1101/2021.10.13.464316 (bioRxiv, 2021):
Read-outs that look alike come from different tables or passages of the source.

Legend:
Assay in all cases: pull-down
[1] = biological target: 6 × His-tagged FER–CD (Arabidopsis thaliana, UniProt Q9SCZ4 469-895)
[2] = biological target: T1, FER^K565R–CD–His (kinase dead form) (Arabidopsis thaliana, UniProt Q9SCZ4 469-895, K565R)
[3] = biological target: T1, FER^K565R–CD–His (kinase dead form); remark: listed apart in the source
[4] = biological target: FER–CD (+ ATP) treated with CIP (Arabidopsis thaliana, UniProt Q9SCZ4 469-895)
Chain of FER–CD (+ ATP) treated with CIP (Q9SCZ4 469-895): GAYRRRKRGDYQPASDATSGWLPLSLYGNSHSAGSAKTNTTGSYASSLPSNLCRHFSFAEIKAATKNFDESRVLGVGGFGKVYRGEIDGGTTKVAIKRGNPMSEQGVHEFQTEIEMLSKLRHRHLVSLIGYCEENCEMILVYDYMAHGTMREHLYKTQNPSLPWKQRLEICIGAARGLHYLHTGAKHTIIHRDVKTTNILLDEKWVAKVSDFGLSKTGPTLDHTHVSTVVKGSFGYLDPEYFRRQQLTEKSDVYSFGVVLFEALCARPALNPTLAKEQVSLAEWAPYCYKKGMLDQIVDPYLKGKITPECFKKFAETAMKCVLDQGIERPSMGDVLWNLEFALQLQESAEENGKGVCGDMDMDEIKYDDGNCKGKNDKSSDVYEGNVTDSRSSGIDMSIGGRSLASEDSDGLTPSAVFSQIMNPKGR

Chain of 6 × His-tagged FER–CD (Q9SCZ4 469-895): as above
T1 sequence (Q9SCZ4 469-895 K565R): as the sequence (Q9SCZ4 469-895) above, with K97R counted along it

| Binder | binding result [1] | binding result [2] | binding result [3] | binding result [4] |
| --- | --- | --- | --- | --- |
| GST–CAR5 (natural protein) MIVSFLYFSSLFPTSLRKINLVAGEKHKDRRMKPSLMDSLLGLLRIRIKRGVNLAVRDLNSSDPYVVVKMAKQKLKTRVIYKNVNPEWNEDLTLSVSDPNLTVLLTVYDYDTFTKDDKMGDAEFGIKPFVNALKMHLHDLPSGTIVTTVQPSRDNCLAEESRVIWSDGKLVQDIVLRLRHVECGEVEAQLQWIDLPGKGL | binds | – | – | – |
| GST–CAR9 (natural protein) MEDKPLGILRVHVKRGINLAIRDATTSDPYVVITLANQKLKTRVINNNCNPVWNEQLTLSIKDVNDPIRLTVFDKDRFSGDDKMGDAEIDFRPFLEAHQMELDFQKLPNGCAIKRIRPGRTNCLAEESSITWSNGKIMQEMILRLKNVECGEVELMLEWTDGPGCKGLGREGSKKTPWMPTKRLD | binds | binds | – | – |
| GST–CAR10 (natural protein) MDQKPLGLLTIHVKRGINLAIRDHRSSDPYIVLNVADQTLKTRVVKKNCNPVWNEEMTVAIKDPNVPIRLTVFDWDKFTGDDKMGDANIDIQPYLEALKMGMELLRLPNGCAIKRVQPSRHNCLSDESSIVWNNGKITQDLILRLNNVECGEIEIMLEWHEGAGCRGITSSSKGGGSSST | binds | – | – | – |

The next lines start with the values.

| binding result [1] | binding result [2] | binding result [3] | binding result [4] | Binder |
| --- | --- | --- | --- | --- |
| – | – | binds | binds | GST–CAR9^3M (natural protein) MEDKPLGILRVHVKRGINLAIRDATAADPFVVITLANQKLKTRVINNNCNPVWNEQLTLSIKDVNDPIRLTVFDKDRFSGDDKMGDAEIDFRPFLEAHQMELDFQKLPNGCAIKRIRPGRTNCLAEESSITWSNGKIMQEMILRLKNVECGEVELMLEWTDGPGCKGLGREGSKKTPWMPTKRLD |
| binds | – | – | – | GST–CAR6 (natural protein) MEKTEEEVEMKELVGLVRILVKRGIDLARRDALSSDPFVVITMGPQKLKSFTVKNNCNPEWNEELTLAIEDPNEPVKLMVYDKDTFTADDKMGDAQIDMKPFLDVHKLGLKELPHGKELKRIVPTRDNCLSEDSIIVSDNGKIVQDMILLLKNVECGKVEIQLEWLKNPGGSGL |
